Source: PMC7058304 (PLoS ONE, 2020)

How the values were obtained:
Conditions in all cases: both partners purified
[1] = biological target: T1, Recombinant purified human PD-1 protein, residues Leu25-Thr168, with a C-terminal 6-His tag (human, UniProt Q15116); test: KinExA equilibrium; fixed mAb orientation: PD-1-His monomer titrated (0.1 pM-1.2 uM) into fixed mAb, equilibrated up to 64 h; free mAb captured on beads coated with Fc-fused PD-1; about 23 C; PBS pH 7.4 + 0.05% azide + 0.01% BSA; N-curve analysis; apparent
T1 construct: programmed cell death protein 1 (PD-1), human, residues Leu25-Thr168; monomer; the results call it wild-type or full length PD-1 against the P35-Q167 fragment; also called PD-1-His; PD-1 His-tagged monomer; source: bought: R&D Systems; not shown: His6, C-terminal, kept
T1 sequence (Q15116 25-168): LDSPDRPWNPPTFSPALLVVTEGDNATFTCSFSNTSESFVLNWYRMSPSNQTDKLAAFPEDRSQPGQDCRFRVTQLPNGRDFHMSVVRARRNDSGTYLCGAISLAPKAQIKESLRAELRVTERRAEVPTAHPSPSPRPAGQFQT

[2] = biological target: T1, Recombinant purified human PD-1 …; test: SPR; Carterra LSA, CMD-P (flat) chip; mAbs captured on goat anti-human IgG Fc in a 384-spot array; PD-1-His analyte 0.5-1000 nM, 5 min association, 20 min dissociation; HBS-ET + 0.5 mg/ml BSA; 1:1 Langmuir fit; mean of spots; apparent
[3] = biological target: T1, Recombinant purified human PD-1 …; test: SPR; Biacore 8K, 3D-hydrogel chips (average of CM5 and CMD-200M); mAbs captured on goat anti-human IgG Fc; PD-1 His-tagged monomer analyte 0.4-100 nM; 25 C; HBS-EP+ pH 7.4; 1:1 Langmuir fit with mass transport; apparent
[4] = biological target: T2, biotinylated His-tagged PD-1 (Homo sapiens, UniProt Q15116, biotin); test: MSD solution equilibrium titration; 100 pM biotinylated His-tagged PD-1 titrated with mAb (top 100, 50 or 10 nM binding sites), 18 h at room temperature; free antigen captured on mAb-coated MSD plates; relative KD
T2 construct: PD-1, His-tagged, biotinylated, used in the MSD experiments; probably the R&D Systems Leu25-Thr168 protein after biotinylation
T2 sequence (Q15116 whole entry, looked up, tested part not stated): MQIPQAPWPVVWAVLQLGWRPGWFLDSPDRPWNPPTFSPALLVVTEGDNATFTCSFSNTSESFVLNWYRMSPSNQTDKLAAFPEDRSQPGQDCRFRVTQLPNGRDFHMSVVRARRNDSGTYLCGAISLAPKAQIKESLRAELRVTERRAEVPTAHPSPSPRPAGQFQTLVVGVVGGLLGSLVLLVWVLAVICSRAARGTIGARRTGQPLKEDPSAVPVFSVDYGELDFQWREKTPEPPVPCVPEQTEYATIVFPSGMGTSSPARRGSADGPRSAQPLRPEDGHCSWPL

[5] = biological target: T1, Recombinant purified human PD-1 …; test: SPR; Biacore 8K, flat chips (average of C1 and CMD-P); mAbs captured on goat anti-human IgG Fc; PD-1 His-tagged monomer analyte 0.4-100 nM; 25 C; HBS-EP+ pH 7.4; 1:1 Langmuir fit with mass transport; apparent
[6] = biological target: T3, Recombinant purified human PD-1 protein, residues Leu25-Thr168, with a C-terminal 6-His tag (Homo sapiens, UniProt Q15116); test: SPR; Carterra LSA, CMD-P (flat) chip; mAb captured by amine-coupled goat anti-human IgG Fc, PD-1-His as analyte 0.5-1000 nM, 5 min association, 20 min dissociation; run buffer with 0.5 mg/ml BSA; global 1:1 Langmuir fit; mean (stdev) of 8-12 spots per mAb; KD deduced from kd/ka; apparent
T3 construct: human PD-1 (programmed cell death protein 1), residues Leu25-Thr168; monomer; used as analyte in SPR and as titrant in KinExA; also called PD-1-His; PD-1-His monomer; source: bought: R&D Systems (catalog# 8986-PD, lot# DDJM0417041); not shown: His6, C-terminal, kept
T3 sequence (Q15116 25-168): as the sequence (Q15116 25-168) above

[7] = biological target: T3, Recombinant purified human PD-1 …; test: KinExA; 'Kinetics, Direct' method, solution phase: mAb mixed with PD-1, free mAb probed repeatedly pre-equilibrium on PD-1-coupled PMMA beads, Alexa647 goat anti-human IgG detection; ka fitted (best fit, 95% CI), kd calculated from ka and KD

Row | Kd [1] | Kd [2] | koff [2] | kon [2] | Kd [3] | Kd [4] | Kd [5] | Kd [6] | koff [6] | kon [6] | koff [7] | kon [7] | Binder
1 | 0.22 nM | 1.5 nM | 0.00028 s⁻¹ | 190000 M⁻¹ s⁻¹ | 1.9 nM | 0.13 nM | 0.82 nM | – | – | – | – | – | mAb23 (analog of cemiplimab) (antibody, V domains shown, VH; IgG4 heavy-chain constant region with stabilizing 226CPPC hinge; VL; IgG4 analog; source: HEK293 suspension cells, cotransfected, purified (Protein A)) VH: EVQLLESGGVLVQPGGSLRLSCAASGFTFSNFGMTWVRQAPGKGLEWVSGISGGGRDTYFADSVKGRFTISRDNSKNTLYLQMNSLKGEDTAVYYCVKWGNIYFDYWGQGTLVTVSS VL: DIQMTQSPSSLSASVGDSITITCRASLSINTFLNWYQQKPGKAPNLLIYAASSLHGGVPSRFSGSGSGTDFTLTIRTLQPEDFATYYCQQSSNTPFTFGPGTVVDFR
2 | – | – | – | – | – | – | – | 1.52 nM | 0.000297 s⁻¹ | 195000 M⁻¹ s⁻¹ | 0.00011 s⁻¹ | 502000 M⁻¹ s⁻¹ | mAb23 (analog of cemiplimab) (antibody, V domains shown, VH; IgG4 heavy-chain constant region with a stabilizing 226CPPC hinge modification; IgG4; isotype-matched analog made from published variable regions, not the clinical molecule; source: HEK293 suspension cells, cotransfected, purified (Protein A)) VH: EVQLLESGGVLVQPGGSLRLSCAASGFTFSNFGMTWVRQAPGKGLEWVSGISGGGRDTYFADSVKGRFTISRDNSKNTLYLQMNSLKGEDTAVYYCVKWGNIYFDYWGQGTLVTVSS VL: DIQMTQSPSSLSASVGDSITITCRASLSINTFLNWYQQKPGKAPNLLIYAASSLHGGVPSRFSGSGSGTDFTLTIRTLQPEDFATYYCQQSSNTPFTFGPGTVVDFR
3 | 0.2 nM | 1.6 nM | 0.00039 s⁻¹ | 240000 M⁻¹ s⁻¹ | 1.7 nM | 0.18 nM | 0.87 nM | – | – | – | – | – | mAb16 (analog of dostarlimab) (antibody, V domains shown, VH; IgG4 heavy-chain constant region with stabilizing 226CPPC hinge; VL; IgG4 analog; source: HEK293 suspension cells, cotransfected, purified (Protein A)) VH: EVQLLESGGGLVQPGGSLRLSCAASGFTFSSYDMSWVRQAPGKGLEWVSTISGGGSYTYYQDSVKGRFTISRDNSKNTLYLQMNSLRAEDTAVYYCASPYYAMDYWGQGTTVTVSS VL: DIQLTQSPSFLSAYVGDRVTITCKASQDVGTAVAWYQQKPGKAPKLLIYWASTLHTGVPSRFSGSGSGTEFTLTISSLQPEDFATYYCQHYSSYPWTFGQGTKLEIK
4 | – | – | – | – | – | – | – | 1.67 nM | 0.000421 s⁻¹ | 252000 M⁻¹ s⁻¹ | 0.00013 s⁻¹ | 639000 M⁻¹ s⁻¹ | mAb16 (analog of dostarlimab) (antibody, V domains shown, VH; IgG4 heavy-chain constant region with a stabilizing 226CPPC hinge modification; IgG4; isotype-matched analog made from published variable regions, not the clinical molecule; source: HEK293 suspension cells, cotransfected, purified (Protein A)) VH: EVQLLESGGGLVQPGGSLRLSCAASGFTFSSYDMSWVRQAPGKGLEWVSTISGGGSYTYYQDSVKGRFTISRDNSKNTLYLQMNSLRAEDTAVYYCASPYYAMDYWGQGTTVTVSS VL: DIQLTQSPSFLSAYVGDRVTITCKASQDVGTAVAWYQQKPGKAPKLLIYWASTLHTGVPSRFSGSGSGTEFTLTISSLQPEDFATYYCQHYSSYPWTFGQGTKLEIK
5 | 0.038 nM | < 0.099 nM | < 4.3e-05 s⁻¹ | 430000 M⁻¹ s⁻¹ | 0.26 nM | 0.024 nM | 0.13 nM | – | – | – | – | – | mAb03 (analog of tislelizumab) (antibody, V domains shown, VH; IgG4 heavy-chain constant region with stabilizing 226CPPC hinge; VL; IgG4 analog; source: HEK293 suspension cells, cotransfected, purified (Protein A)) VH: QVQLQESGPGLVKPSETLSLTCTVSGFSLTSYGVHWIRQPPGKGLEWIGVIYADGSTNYNPSLKSRVTISKDTSKNQVSLKLSSVTAADTAVYYCARAYGNYWYIDVWGQGTTVTVSS VL: DIVMTQSPDSLAVSLGERATINCKSSESVSNDVAWYQQKPGQPPKLLINYAFHRFTGVPDRFSGSGYGTDFTLTISSLQAEDVAVYYCHQAYSSPYTFGQGTKLEIK
6 | – | – | – | – | – | – | – | < 0.1 nM | < 4.27e-05 s⁻¹ | 432000 M⁻¹ s⁻¹ | 6.82e-05 s⁻¹ | 1.8e+06 M⁻¹ s⁻¹ | mAb03 (analog of tislelizumab) (antibody, V domains shown, VH; IgG4 heavy-chain constant region with a stabilizing 226CPPC hinge modification; IgG4; isotype-matched analog made from published variable regions, not the clinical molecule; source: HEK293 suspension cells, cotransfected, purified (Protein A)) VH: QVQLQESGPGLVKPSETLSLTCTVSGFSLTSYGVHWIRQPPGKGLEWIGVIYADGSTNYNPSLKSRVTISKDTSKNQVSLKLSSVTAADTAVYYCARAYGNYWYIDVWGQGTTVTVSS VL: DIVMTQSPDSLAVSLGERATINCKSSESVSNDVAWYQQKPGQPPKLLINYAFHRFTGVPDRFSGSGYGTDFTLTISSLQAEDVAVYYCHQAYSSPYTFGQGTKLEIK
